Assay results: paper PMC12089306
Each block holds one substance with its values, some of them ahead of it.

Biological target: TEAD4 (UniProt Q15561)
Assay: co-immunoprecipitation
Details: reference: wild type SP1

binding against the reference (sites S670): weaker
Substance: SP1 (from UniProt P08047) S670 single mutant

binding against the reference (sites T668): weaker
Substance: SP1 (from UniProt P08047) T668 single mutant

binding against the reference (sites T681): weaker
Substance: SP1 (from UniProt P08047) T681 single mutant
